Test results: PMC4153549

System: Grsf1-GST
Experiment: EMSA
Conditions: 10 mM HEPES-NaOH pH 7.9, 25 mM KCl, 1.5 mM EDTA, 4% glycerol, 0.25 mM DTT, 7.5 ug/uL heparin, 25 ng/uL yeast tRNA, 20 min at 30 C; native 5% PAGE

**Q.** Which Kd does the source give for Use1 5'UTR WT A(G)4A probe here?
**A.** 527 nM

**Q.** For “Use1 dG4 probe (GGGG deleted from A(G)4A)”, which Kd is on record?
**A.** 4400 nM
